From patent US20220289814A1

Columns and labels:
Test in all cases: cell-based or functional assay
[1] = molecular target: M666 ITAM-modified BCMA CAR (ISD: Linker 6-CD3ζ ITAM2-Linker 1-CD3ζ ITAM2-Linker 7-CD3ζ ITAM2-Linker 2) (UniProt P01732)
[2] = molecular target: M663 ITAM-modified BCMA CAR (ISD: Linker 6-CD3ζ ITAM1-Linker 1-CD3ζ ITAM2-Linker 7-CD3ζ ITAM3-Linker 2) (UniProt P01732)
[3] = molecular target: M665 ITAM-modified BCMA CAR (ISD: Linker 6-CD3ζ ITAM1-Linker 1-CD3ζ ITAM1-Linker 7-CD3ζ ITAM1-Linker 2) (UniProt P01732)
Chain of M665 ITAM-modified BCMA CAR (ISD: Linker 6-CD3ζ ITAM1-Linker 1-CD3ζ ITAM1-Linker 7-CD3ζ ITAM1-Linker 2) (P01732 whole entry): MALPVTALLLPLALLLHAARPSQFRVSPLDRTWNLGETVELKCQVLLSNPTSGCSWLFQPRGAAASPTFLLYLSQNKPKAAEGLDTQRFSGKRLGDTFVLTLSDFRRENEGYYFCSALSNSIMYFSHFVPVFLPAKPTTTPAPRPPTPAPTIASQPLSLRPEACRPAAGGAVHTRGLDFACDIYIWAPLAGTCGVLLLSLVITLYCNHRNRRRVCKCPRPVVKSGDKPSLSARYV

Chain of M666 ITAM-modified BCMA CAR (ISD: Linker 6-CD3ζ ITAM2-Linker 1-CD3ζ ITAM2-Linker 7-CD3ζ ITAM2-Linker 2) (P01732 whole entry): as above
Chain of M663 ITAM-modified BCMA CAR (ISD: Linker 6-CD3ζ ITAM1-Linker 1-CD3ζ ITAM2-Linker 7-CD3ζ ITAM3-Linker 2) (P01732 whole entry): as above

Substance: wildtype SIV Nef
- Relative ISD-modified CAR expression (CAR positive rate, FACS with FITC-labeled human BCMA, normalized to empty vector control), day 3 after Nef transduction [1]: 57%
- Relative ISD-modified CAR expression (CAR positive rate, FACS with FITC-labeled human BCMA, normalized to empty vector control), day 3 after Nef transduction [2]: 46.7%
- Relative ISD-modified CAR expression (CAR positive rate, FACS with FITC-labeled human BCMA, normalized to empty vector control), day 3 after Nef transduction [3]: 82.3%
